Legend:
HeLa Kyoto [1] = experiment: solubility in G1/S (NP-40 vs SDS abundance) (log2 ratio); higher = more soluble; details: cell cycle stage: G1/S
HeLa Kyoto [2] = experiment: melting temperature (median over replicates), in situ; higher = more thermally stable
HeLa Kyoto [3] = experiment: solubility change mitosis vs G1/S (difference of NP-40 vs SDS log2 ratios) (log2 ratio difference); higher = more soluble in mitosis
HeLa Kyoto [4] = experiment: thermal stability score vs G1/S (z-score of summed log2 fold changes over temperatures); higher = more thermally stable than in G1/S
[5] = cell cycle stage: early G1 (4.5 h after nocodazole release)
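Throughout, for melting temperature (median over replicates), in situ: HeLa Kyoto cells synchronized by double thymidine or nocodazole block, proteins quantified by TMT10plex mass spectrometry, three independent biological replicates.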
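Throughout, for solubility change mitosis vs G1/S (difference of NP-40 vs SDS log2 ratios): synchronized HeLa Kyoto cells (double thymidine block for G1/S, nocodazole release for mitosis), protein amounts in NP-40 versus SDS lysates quantified by mass spectrometry, three biological replicates.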
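Throughout, for solubility in G1/S (NP-40 vs SDS abundance): HeLa Kyoto cells arrested at G1/S by double thymidine block, proteins quantified by TMT10plex mass spectrometry in mild NP-40 versus SDS extracts, three biological replicates.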
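Throughout, for thermal stability score vs G1/S (z-score of summed log2 fold changes over temperatures): synchronized HeLa Kyoto cells, proteins quantified by TMT10plex mass spectrometry, three biological replicates, mitosis taken 0.5 h after nocodazole release, G1/S directly after double thymidine block.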

Substance	solubility in G1/S (log2) (HeLa Kyoto [1])	melting temperature (HeLa Kyoto [2]; cell cycle stage: G1/S)	melting temperature (HeLa Kyoto [2]; cell cycle stage: mitosis)	solubility change mitosis (log2) (HeLa Kyoto [3])	thermal stability score (HeLa Kyoto [4]; [5])	thermal stability score (HeLa Kyoto [4]; cell cycle stage: mitosis)
MIAAPEIPTDFNLLQESETHFSSDTDFEDIEGKNQKQGKGKTCKKGKKGPAEKGKGGNGGGKPPSGPNRMNGHHQQNGVENMMLFEVVKMGKSAMQSVVDDWIESYKHDRDIALLDLINFFIQCSGCKGVVTAEMFRHMQNSEIIRKMTEEFDEDSGDYPLTMAGPQWKKFKSSFCEFIGVLVRQCQYSIIYDEYMMDTVISLLTGLSDSQVRAFRHTSTLAAMKLMTALVNVALNLSINMDNTQRQYEAERNKMIGKRANERLELLLQKRKELQENQDEIENMMNAIFKGVFVHRYRDAIAEIRAICIEEIGIWMKMYSDAFLNDSYLKYVGWTMHDKQGEVRLKCLTALQGLYYNKELNSKLELFTSRFKDRIVSMTLDKEYDVAVQAIKLLTLVLQSSEEVLTAEDCENVYHLVYSAHRPVAVAAGEFLYKKLFSRRDPEEDGMMKRRGRQGPNANLVKTLVFFFLESELHEHAAYLVDSMWDCATELLKDWECMNSLLLEEPLSGEEALTDRQESALIEIMLCTIRQAAECHPPVGRGTGKRVLTAKEKKTQLDDRTKITELFAVALPQLLAKYSVDAEKVTNLLQLPQYFDLEIYTTGRLEKHLDALLRQIRNIVEKHTDTDVLEACSKTYHALCNEEFTIFNRVDISRSQLIDELADKFNRLLEDFLQEGEEPDEDDAYQVLSTLKRITAFHNAHDLSKWDLFACNYKLLKTGIENGDMPEQIVIHALQCTHYVILWQLAKITESSSTKEDLLRLKKQMRVFCQICQHYLTNVNTTVKEQAFTILCDILMIFSHQIMSGGRDMLEPLVYTPDSSLQSELLSFILDHVFIEQDDDNNSADGQQEDEASKIEALHKRRNLLAAFCKLIVYTVVEMNTAADIFKQYMKYYNDYGDIIKETMSKTRQIDKIQCAKTLILSLQQLFNEMIQENGYNFDRSSSTFSGIKELARRFALTFGLDQLKTREAIAMLHKDGIEFAFKEPNPQGESHPPLNLAFLDILSEFSSKLLRQDKRTVYVYLEKFMTFQMSLRREDVWLPLMSYRNSLLAGGDDDTMSVISGISSRGSTVRSKKSKPSTGKRKVVEGMQLSLTEESSSSDSMWLSREQTLHTPVMMQTPQLTSTIMREPKRLRPEDSFMSVYPMQTEHHQTPLDYNRRGTSLMEDDEEPIVEDVMMSSEGRIEDLNEGMDFDTMDIDLPPSKNRRERTELKPDFFDPASIMDESVLGVSMF [STAG2]	-0.185	52.9 °C	51.6 °C	-0.0337	-0.506	-0.478
MAAIGVHLGCTSACVAVYKDGRAGVVANDAGDRVTPAVVAYSENEEIVGLAAKQSRIRNISNTVMKVKQILGRSSSDPQAQKYIAESKCLVIEKNGKLRYEIDTGEETKFVNPEDVARLIFSKMKETAHSVLGSDANDVVITVPFDFGEKQKNALGEAARAAGFNVLRLIHEPSAALLAYGIGQDSPTGKSNILVFKLGGTSLSLSVMEVNSGIYRVLSTNTDDNIGGAHFTETLAQYLASEFQRSFKHDVRGNARAMMKLTNSAEVAKHSLSTLGSANCFLDSLYEGQDFDCNVSRARFELLCSPLFNKCIEAIRGLLDQNGFTADDINKVVLCGGSSRIPKLQQLIKDLFPAVELLNSIPPDEVIPIGAAIEAGILIGKENLLVEDSLMIECSARDILVKGVDESGASRFTVLFPSGTPLPARRQHTLQAPGSISSVCLELYESDGKNSAKEETKFAQVVLQDLDKKENGLRDILAVLTMKRDGSLHVTCTDQETGKCEAISIEIAS [HSPA14]	0.167	48.4 °C	48.4 °C	-0.0832	1.14	3.27
MHPLQCVLQVQRSLGWGPLASVSWLSLRMCRAHSSLSSTMCPSPERQEDGARKDFSSRLAAGPTFQHFLKSASAPQEKLSSEVEDPPPYLMMDELLGRQRKVYLETYGCQMNVNDTEIAWSILQKSGYLRTSNLQEADVILLVTCSIREKAEQTIWNRLHQLKALKTRRPRSRVPLRIGILGCMAERLKEEILNREKMVDILAGPDAYRDLPRLLAVAESGQQAANVLLSLDETYADVMPVQTSASATSAFVSIMRGCDNMCSYCIVPFTRGRERSRPIASILEEVKKLSEQVFLPPRPPKVLGLQGLKEVTLLGQNVNSFRDNSEVQFNSAVPTNLSRGFTTNYKTKQGGLRFAHLLDQVSRVDPEMRIRFTSPHPKDFPDEVLQLIHERDNICKQIHLPAQSGSSRVLEAMRRGYSREAYVELVHHIRESIPGVSLSSDFIAGFCGETEEDHVQTVSLLREVQYNMGFLFAYSMRQKTRAYHRLKDDVPEEVKLRRLEELITIFREEATKANQTSVGCTQLVLVEGLSKRSATDLCGRNDGNLKVIFPDAEMEDVNNPGLRVRAQPGDYVLVKITSASSQTLRGHVLCRTTLRDSSAYC [CDK5RAP1]	-0.0387	50.6 °C	51 °C	-0.0868	0.115	0.734
MEPLAAYPLKCSGPRAKVFAVLLSIVLCTVTLFLLQLKFLKPKINSFYAFEVKDAKGRTVSLEKYKGKVSLVVNVASDCQLTDRNYLGLKELHKEFGPSHFSVLAFPCNQFGESEPRPSKEVESFARKNYGVTFPIFHKIKILGSEGEPAFRFLVDSSKKEPRWNFWKYLVNPEGQVVKFWKPEEPIEVIRPDIAALVRQVIIKKKEDL [GPX8]	0.0659	52.8 °C	52.3 °C	-0.208	3.63	4.95
MSGGLLKALRSDSYVELSQYRDQHFRGDNEEQEKLLKKSCTLYVGNLSFYTTEEQIYELFSKSGDIKKIIMGLDKMKKTACGFCFVEYYSRADAENAMRYINGTRLDDRIIRTDWDAGFKEGRQYGRGRSGGQVRDEYRQDYDAGRGGYGKLAQNQ [NCBP2]	-0.118	51.4 °C	51.8 °C	0.26	-0.145	-1.78
MSLSHLYRDGEGRIDDDDDERENFEITDWDLQNEFNPNRQRHWQTKEEATYGVWAERDSDDERPSFGGKRARDYSAPVNFISAGLKKGAAEEAELEDSDDEEKPVKQDDFPKDFGPRKLKTGGNFKPSQKGFAGGTKSFMDFGSWERHTKGIGQKLLQKMGYVPGRGLGKNAQGIINPIEAKQRKGKGAVGAYGSERTTQSMQDFPVVDSEEEAEEEFQKELSQWRKDPSGSKKKPKYSYKTVEELKAKGRISKKLTAPQKELSQVKVIDMTGREQKVYYSYSQISHKHNVPDDGLPLQSQQLPQSGKEAKAPGFALPELEHNLQLLIDLTEQEIIQNDRQLQYERDMVVNLFHELEKMTEVLDHEERVISNLSKVLEMVEECERRMQPDCSNPLTLDECARIFETLQDKYYEEYRMSDRVDLAVAIVYPLMKEYFKEWDPLKDCTYGTEIISKWKSLLENDQLLSHGGQDLSADAFHRLIWEVWMPFVRNIVTQWQPRNCDPMVDFLDSWVHIIPVWILDNILDQLIFPKLQKEVENWNPLTDTVPIHSWIHPWLPLMQARLEPLYSPIRSKLSSALQKWHPSDSSAKLILQPWKDVFTPGSWEAFMVKNIVPKLGMCLGELVINPHQQHMDAFYWVIDWEGMISVSSLVGLLEKHFFPKWLQVLCSWLSNSPNYEEITKWYLGWKSMFSDQVLAHPSVKDKFNEALDIMNRAVSSNVGAYMQPGARENIAYLTHTERRKDFQYEAMQERREAENMAQRGIGVAASSVPMNFKDLIETKAEEHNIVFMPVIGKRHEGKQLYTFGRIVIYIDRGVVFVQGEKTWVPTSLQSLIDMAK [TFIP11]	-0.472	48.4 °C	48.9 °C	0.115	0.21	1.2
CENPF	-0.00455	48.9 °C	49.7 °C	0.109	2.12	0.418
MENAHTKTVEEVLGHFGVNESTGLSLEQVKKLKERWGSNELPAEEGKTLLELVIEQFEDLLVRILLLAACISFVLAWFEEGEETITAFVEPFVILLILVANAIVGVWQERNAENAIEALKEYEPEMGKVYRQDRKSVQRIKAKDIVPGDIVEIAVGDKVPADIRLTSIKSTTLRVDQSILTGESVSVIKHTDPVPDPRAVNQDKKNMLFSGTNIAAGKAMGVVVATGVNTEIGKIRDEMVATEQERTPLQQKLDEFGEQLSKVISLICIAVWIINIGHFNDPVHGGSWIRGAIYYFKIAVALAVAAIPEGLPAVITTCLALGTRRMAKKNAIVRSLPSVETLGCTSVICSDKTGTLTTNQMSVCRMFILDRVEGDTCSLNEFTITGSTYAPIGEVHKDDKPVNCHQYDGLVELATICALCNDSALDYNEAKGVYEKVGEATETALTCLVEKMNVFDTELKGLSKIERANACNSVIKQLMKKEFTLEFSRDRKSMSVYCTPNKPSRTSMSKMFVKGAPEGVIDRCTHIRVGSTKVPMTSGVKQKIMSVIREWGSGSDTLRCLALATHDNPLRREEMHLEDSANFIKYETNLTFVGCVGMLDPPRIEVASSVKLCRQAGIRVIMITGDNKGTAVAICRRIGIFGQDEDVTSKAFTGREFDELNPSAQRDACLNARCFARVEPSHKSKIVEFLQSFDEITAMTGDGVNDAPALKKAEIGIAMGSGTAVAKTASEMVLADDNFSTIVAAVEEGRAIYNNMKQFIRYLISSNVGEVVCIFLTAALGFPEALIPVQLLWVNLVTDGLPATALGFNPPDLDIMNKPPRNPKEPLISGWLFFRYLAIGCYVGAATVGAAAWWFIAADGGPRVSFYQLSHFLQCKEDNPDFEGVDCAIFESPYPMTMALSVLVTIEMCNALNSLSENQSLLRMPPWENIWLVGSICLSMSLHFLILYVEPLPLIFQITPLNVTQWLMVLKISLPVILMDETLKFVARNYLEPGKECVQPATKSCSFSACTDGISWPFVLLIMPLVIWVYSTDTNFSDMFWS [ATP2A2]	-0.104	51.8 °C	51.8 °C	-0.116	3.11	3.97
MAKRKEENFSSPKNAKRPRQEELEDFDKDGDEDECKGTTLTAAEVGIIESIHLKNFMCHSMLGPFKFGSNVNFVVGNNGSGKSAVLTALIVGLGGRAVATNRGSSLKGFVKDGQNSADISITLRNRGDDAFKASVYGNSILIQQHISIDGSRSYKLKSATGSVVSTRKEELIAILDHFNIQVDNPVSVLTQEMSKQFLQSKNEGDKYKFFMKATQLEQMKEDYSYIMETKERTKEQIHQGEERLTELKRQCVEKEERFQSIAGLSTMKTNLESLKHEMAWAVVNEIEKQLNAIRDNIKIGEDRAARLDRKMEEQQVRLNEAEQKYKDIQDKLEKISEETNARAPECMALKADVVAKKRAYNEAEVLYNRSLNEYKALKKDDEQLCKRIEELKKSTDQSLEPERLERQKKISWLKERVKAFQNQENSVNQEIEQFQQAIEKDKEEHGKIKREELDVKHALSYNQRQLKELKDSKTDRLKRFGPNVPALLEAIDDAYRQGHFTYKPVGPLGACIHLRDPELALAIESCLKGLLQAYCCHNHADERVLQALMKRFYLPGTSRPPIIVSEFRNEIYDVRHRAAYHPDFPTVLTALEIDNAVVANSLIDMRGIETVLLIKNNSVARAVMQSQKPPKNCREAFTADGDQVFAGRYYSSENTRPKFLSRDVDSEISDLENEVENKTAQILNLQQHLSALEKDIKHNEELLKRCQLHYKELKMKIRKNISEIRELENIEEHQSVDIATLEDEAQENKSKMKMVEEHMEQQKENMEHLKSLKIEAENKYDAIKFKINQLSELADPLKDELNLADSEVDNQKRGKRHYEEKQKEHLDTLNKKKRELDMKEKELEEKMSQARQICPERIEVEKSASILDKEINRLRQKIQAEHASHGDREEIMRQYQEARETYLDLDSKVRTLKKFIKLLGEIMEHRFKTYQQFRRCLTLRCKLYFDNLLSQRAYCGKMNFDHKNETLSISVQPGEGNKAAFNDMRALSGGERSFSTVCFILSLWSIAESPFRCLDEFDVYMDMVNRRIAMDLILKMADSQRFRQFILLTPQSMSSLPSSKLIRILRMSDPERGQTTLPFRPVTQEEDDDQR [SMC6]	-0.133	50.6 °C	50.4 °C	0.0261	0.465	-0.0501

Reference: the supplement of paper PMC5998384
